Measured values as given in the Human Domainome abundance scans (Beltran et al. 2025).
± gives the uncertainty stated by the source.

B1: FERM and PDZ domain-containing protein 4, residues 75 to 154; numbered along this chain, Q14CM0 (parent)
chain: APRKVEMRRDPVLGFGFVAGSEKPVVVRSVTPGGPSEGKLIPGDQIVMINDEPVSAAPRERVIDLVRSCKESILLTVIQP

Variants of: B1
Assay: abundance fitness (aPCA) (normalised: wild type 0, dead -1); higher = more abundant; growth selection in yeast, the domain comes from the species named
Details: Homo sapiens

Variant | abundance fitness
T31K | -0.012 ± 0.029
T31S | -0.001 ± 0.023
T31M | -0.067 ± 0.032
T31A | -0.045 ± 0.025
I41D | -0.063 ± 0.036
I41C | -0.014 ± 0.031
I41E | 0.015 ± 0.025
I41A | 0.005 ± 0.023
I41H | 0.028 ± 0.036
I41G | -0.084 ± 0.022
I41F | 0.043 ± 0.036
V30Q | -0.801 ± 0.052
V30T | -0.089 ± 0.029
V30C | -0.102 ± 0.031
V30K | -0.87 ± 0.056
V30F | -0.416 ± 0.051
V30I | -0.081 ± 0.035
V30A | -0.499 ± 0.026
V30W | -0.756 ± 0.037
V30M | -0.335 ± 0.035
V30L | -0.115 ± 0.024
V30H | -0.967 ± 0.1
V30E | -0.901 ± 0.048
V30Y | -0.521 ± 0.049

Variant | abundance fitness
V30R | -0.914 ± 0.031
V30P | -0.864 ± 0.055
V30S | -0.743 ± 0.035
V30D | -0.804 ± 0.065
G34I | -0.957 ± 0.13
G34V | -0.962 ± 0.042
G34F | -0.765 ± 0.081
G34K | -1.02 ± 0.084
G34H | -0.543 ± 0.077
G34C | -0.552 ± 0.041
G34A | -0.157 ± 0.025
G34N | -1.07 ± 0.13
G34P | -0.92 ± 0.058
G34S | -0.001 ± 0.025
G34E | -0.999 ± 0.065
G34T | -0.066 ± 0.03
G34Y | -0.867 ± 0.093
G34M | -0.692 ± 0.051
G34D | -0.84 ± 0.061
G34R | -0.954 ± 0.039
G34Q | -0.802 ± 0.054
G34W | -1.1 ± 0.063
G34L | -0.595 ± 0.032
E22N | -0.125 ± 0.048

Variant | abundance fitness
E22A | -0.075 ± 0.024
E22S | -0.126 ± 0.025
E22V | -0.066 ± 0.024
E22I | -0.336 ± 0.05
E22P | -0.979 ± 0.086
E22L | -0.315 ± 0.028
E22G | -0.026 ± 0.021
E22W | -0.305 ± 0.029
E22T | -0.156 ± 0.034
E22Q | -0.029 ± 0.035
E22H | -0.202 ± 0.051
E22Y | -0.012 ± 0.044
E22C | -0.074 ± 0.034
E22K | -0.199 ± 0.035
E22M | -0.22 ± 0.035
V26T | 0.008 ± 0.028
V26H | -0.159 ± 0.044
V26Y | -0.123 ± 0.043
V26W | -0.379 ± 0.029
V26I | -0.025 ± 0.043
V26F | -0.123 ± 0.043
V26C | -0.07 ± 0.033
V26E | -0.036 ± 0.026
V26A | -0.113 ± 0.025

Variant | abundance fitness
V26D | -0.135 ± 0.039
V26L | -0.038 ± 0.024
V26Q | -0.011 ± 0.03
V26S | -0.116 ± 0.025
V26G | -0.446 ± 0.023
V26K | -0.048 ± 0.028
V26M | -0.012 ± 0.032
V26P | -0.702 ± 0.042
P32I | -0.08 ± 0.031
P32R | -0.05 ± 0.024
P32W | -0.247 ± 0.037
P32G | -0.098 ± 0.028
P32H | -0.046 ± 0.028
P32N | -0.058 ± 0.029
P32V | -0.051 ± 0.025
P32A | -0.029 ± 0.026
P32Y | -0.136 ± 0.031
P32S | -0.032 ± 0.024
P32F | -0.206 ± 0.033
P32D | -0.075 ± 0.032
P32K | -0.027 ± 0.029
P32E | -0.037 ± 0.034
P32L | -0.083 ± 0.023
P32Q | -0.018 ± 0.03

Variant | abundance fitness
P32M | -0.039 ± 0.031
P32T | -0.036 ± 0.026
P24F | -0.686 ± 0.076
P24R | -0.572 ± 0.025
P24H | -0.501 ± 0.05
P24T | -0.471 ± 0.037
P24Y | -0.691 ± 0.081
P24K | -0.64 ± 0.049
P24V | -0.725 ± 0.034
P24D | -0.433 ± 0.05
P24A | -0.448 ± 0.029
P24E | -0.51 ± 0.036
P24Q | -0.472 ± 0.041
P24I | -0.777 ± 0.08
P24N | -0.333 ± 0.054
P24S | -0.48 ± 0.031
P24C | -0.51 ± 0.045
P24G | -0.329 ± 0.022
P24M | -0.53 ± 0.042
P24W | -0.947 ± 0.049
P24L | -0.77 ± 0.037
G38T | -0.137 ± 0.03
G38Q | -0.099 ± 0.032
G38W | -0.274 ± 0.026

Variant | abundance fitness
G38K | -0.105 ± 0.036
G38S | -0.124 ± 0.023
G38H | -0.045 ± 0.041
G38V | -0.526 ± 0.026
G38M | -0.185 ± 0.034
G38L | -0.21 ± 0.024
G38N | -0.078 ± 0.047
G38P | -0.54 ± 0.037
G38E | -0.155 ± 0.026
G38Y | -0.142 ± 0.038
G38D | -0.061 ± 0.031
G38C | -0.186 ± 0.03
G38I | -0.651 ± 0.064
G38F | -0.096 ± 0.041
S29C | -0.136 ± 0.03
S29N | -0.032 ± 0.041
S29I | -0.221 ± 0.047
S29T | -0.029 ± 0.027
S29G | -0.055 ± 0.021
S29R | -0.069 ± 0.02
S29F | -0.197 ± 0.039
S29E | 0.007 ± 0.026
S29V | -0.136 ± 0.023
S29Y | -0.189 ± 0.039

Variant | abundance fitness
S29A | -0.074 ± 0.024
S29P | -0.826 ± 0.044
S29L | -0.152 ± 0.023
S29K | -0.059 ± 0.032
S29D | -0.034 ± 0.037
S29H | -0.139 ± 0.039
S29M | -0.083 ± 0.029
S29W | -0.22 ± 0.024
S29Q | -0.026 ± 0.027
K23H | -0.026 ± 0.043
K23I | -0.085 ± 0.05
K23N | 0.015 ± 0.041
K23L | -0.066 ± 0.025
K23F | -0.066 ± 0.04
K23P | -0.317 ± 0.033
K23W | -0.076 ± 0.028
K23D | -0.042 ± 0.039
K23Q | -0.039 ± 0.034
K23C | -0.035 ± 0.035
K23M | -0.01 ± 0.032
K23A | -0.097 ± 0.026
K23T | -0.037 ± 0.031
K23V | -0.136 ± 0.026
